Target: T1, Ssh1p (large subunit, as in the purified Ssh1 complex) (Saccharomyces cerevisiae, UniProt P38353 1-490)
T1 sequence (looked up): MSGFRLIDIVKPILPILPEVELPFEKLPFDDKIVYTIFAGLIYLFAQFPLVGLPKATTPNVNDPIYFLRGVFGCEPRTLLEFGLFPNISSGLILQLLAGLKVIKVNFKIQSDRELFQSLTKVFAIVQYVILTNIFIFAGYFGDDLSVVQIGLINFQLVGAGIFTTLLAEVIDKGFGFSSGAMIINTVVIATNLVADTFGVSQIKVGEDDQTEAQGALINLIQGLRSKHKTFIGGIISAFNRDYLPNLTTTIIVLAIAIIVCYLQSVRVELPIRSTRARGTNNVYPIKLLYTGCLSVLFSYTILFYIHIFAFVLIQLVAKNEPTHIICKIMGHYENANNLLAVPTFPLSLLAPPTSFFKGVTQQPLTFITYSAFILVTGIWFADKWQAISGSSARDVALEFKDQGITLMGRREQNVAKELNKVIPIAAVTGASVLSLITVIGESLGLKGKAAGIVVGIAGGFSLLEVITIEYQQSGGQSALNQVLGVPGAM
Experiment: cryo-EM structure

B1: ribosomal protein rpL25 (yeast 60S subunit) (natural protein)
chain: not shown
- binding result: binds
